These results are taken from patent publication US20150239933A1.

“And” between values parts separate entries of the source, which are not always exact repeats. Equal values may be shown once.

Assay [1] addresses Human recombinant TUBB3 (human) (UniProt Q13509). Briefly: SPR Biacore T200, TUBB3 amine-coupled to CM5, gp120 3.13-100 nM as analyte, 1:1 model; one of two experiments. (In SPR one partner is held on a chip, and binding of the other changes the refractive index at the surface.)
Assay [2] concerns the target assembled microtubules (containing ~25% of TUBB3) (porcine) (UniProt F1S6M7). In words: SPR Biacore T200, assembled MTs immobilised, 1:1 model; mean of two experiments.
In assay [3] the target is Porcine tubulin dimer (porcine). In words: SPR Biacore T200, tubulin dimer immobilised, 1:1 model; mean of two experiments.
Assay [4] has the same target. In words: SPR Biacore T200, tubulin dimer amine-coupled to CM5, gp120 3.13-100 nM as analyte, 1:1 model; one of two experiments.
Assay [5] concerns the target Human recombinant TUBB3 (human) (UniProt Q13509). In words: SPR Biacore T200, TUBB3 immobilised, 1:1 model; mean of two experiments.
Assay [6] addresses assembled microtubules (containing ~25% of TUBB3) (porcine) (UniProt F1S6M7). Briefly: SPR Biacore T200, assembled MTs amine-coupled to CM5, gp120 3.13-100 nM as analyte, 1:1 model; one of two experiments.
The target of assay [7] is Human recombinant TUBB3 (human) (UniProt Q13509). In words: SPR Biacore T200, 60 sec injection of 100 nM over immobilised tubulin β-3, reference-subtracted.
The target of assay [8] is assembled microtubules (containing ~25% of TUBB3) (porcine) (UniProt F1S6M7). Briefly: SPR Biacore T200, 60 sec injection of 100 nM over immobilised microtubules, reference-subtracted.
Assay [9] addresses Porcine tubulin dimer (porcine). Briefly: SPR Biacore T200, 60 sec injection of 100 nM over immobilised tubulin dimer, reference-subtracted.

Sequence of Human recombinant TUBB3 (human) (Q13509 whole entry): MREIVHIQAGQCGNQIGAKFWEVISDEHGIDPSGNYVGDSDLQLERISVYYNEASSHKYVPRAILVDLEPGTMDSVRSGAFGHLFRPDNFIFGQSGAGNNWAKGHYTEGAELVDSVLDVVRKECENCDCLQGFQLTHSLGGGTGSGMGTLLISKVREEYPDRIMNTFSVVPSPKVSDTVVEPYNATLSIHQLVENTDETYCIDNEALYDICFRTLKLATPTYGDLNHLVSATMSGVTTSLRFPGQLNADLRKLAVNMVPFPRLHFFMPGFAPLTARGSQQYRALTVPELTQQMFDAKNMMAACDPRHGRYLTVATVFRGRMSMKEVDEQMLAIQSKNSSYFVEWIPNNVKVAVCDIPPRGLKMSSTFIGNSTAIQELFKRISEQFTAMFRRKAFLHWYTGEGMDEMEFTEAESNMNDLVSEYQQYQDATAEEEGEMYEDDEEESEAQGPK

Usually Kd stands for the concentration at which binding is half-saturated. In the case of gp120ADA, the Kd in [1] is 5.48 nM and 15.2 nM; in assay [2] it was 12 nM; in [3], 11.2 nM; in assay [4], 5.4 nM and 1.71 nM; in [5], 10.3 nM; in assay [6] it was 5.62 nM and 1.83 nM.
In the case of gp120IIIB (from UniProt P04578 33-511), the response (2-1) RU in assay [7] is 35 RU and 44 RU. Besides, the Kd in [2] is 10 nM; in [3], 12.3 nM; in [4], 1.69 nM and 7.68 nM; in [6], 1.16 nM and 8.46 nM. Besides, the response (4-1) RU in assay [8] was 15 RU and 23.2 RU and 19 RU. The response (3-1) RU in assay [9] is 14 RU and 18.6 RU and 21 RU.
